Measured values published in patent US20200010567A1 (NEURIMMUNE, published 2020).

Experiments:
Assay in all cases: indirect ELISA, coated His-tagged peptide
GP10: H-(GP)10HHHHHH-NH2 = target: T1, GP10: H-(GP)10HHHHHH-NH2 (C-terminal amide)
T1 peptide: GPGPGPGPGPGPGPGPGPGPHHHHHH
Outline: (§1)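 His-tagged dipeptide-repeat peptides coated at 50 μg/ml in carbonate buffer pH 9.42; blocked with 2% BSA in PBS/0.1% Tween-20. Human antibodies titrated, 1 h at room temperature, detected with HRP anti-human IgG Fcγ by colorimetric read-out. EC₅₀ from non-linear regression.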

GR6: H-(GR)6HHHHHH-NH2 = target: T2, GR6: H-(GR)6HHHHHH-NH2
T2 peptide: H-GRGRGRGRGRGRHHHHHH-NH2
Outline: as §1

GR10: H-(GR)10HHHHHH-NH2 = target: T3, GR10: H-(GR)10HHHHHH-NH2 (C-terminal amide)
T3 peptide: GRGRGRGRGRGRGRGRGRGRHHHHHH
Outline: as §1

GR3: H-(GR)3HHHHHH-NH2 = target: T4, GR3: H-(GR)3HHHHHH-NH2
T4 peptide: H-GRGRGRHHHHHH-NH2
Outline: as §1

GR5: H-(GR)5HHHHHH-NH2 = target: T5, GR5: H-(GR)5HHHHHH-NH2
T5 peptide: H-GRGRGRGRGRHHHHHH-NH2
Outline: as §1

GR4: H-(GR)4HHHHHH-NH2 = target: T6, GR4: H-(GR)4HHHHHH-NH2
T6 peptide: H-GRGRGRGRHHHHHH-NH2
Outline: as §1

GR20: H-(GR)20HHHHHH-NH2 = target: T7, GR20: H-(GR)20HHHHHH-NH2 (C-terminal amide)
T7 peptide: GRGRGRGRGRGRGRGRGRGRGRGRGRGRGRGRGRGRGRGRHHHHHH
Outline: as §1

PA5: H-(PA)5HHHHHH-NH2 = target: T8, PA5: H-(PA)5HHHHHH-NH2
T8 peptide: H-PAPAPAPAPAHHHHHH-NH2
Outline: as §1

PA10: H-(PA)10HHHHHH-NH2 = target: T9, PA10: H-(PA)10HHHHHH-NH2 (C-terminal amide)
T9 peptide: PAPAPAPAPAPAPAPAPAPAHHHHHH
Outline: as §1

PA6: H-(PA)6HHHHHH-NH2 = target: T10, PA6: H-(PA)6HHHHHH-NH2
T10 peptide: H-PAPAPAPAPAPAHHHHHH-NH2
Outline: as §1

PA20: H-(PA)20HHHHHH-NH2 = target: T11, PA20: H-(PA)20HHHHHH-NH2 (C-terminal amide)
T11 peptide: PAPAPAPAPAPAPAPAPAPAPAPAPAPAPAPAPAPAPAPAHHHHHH
Outline: as §1

PR6: H-(PR)6HHHHHH-NH2 = target: T12, PR6: H-(PR)6HHHHHH-NH2
T12 peptide: H-PRPRPRPRPRPRHHHHHH-NH2
Outline: as §1

PR20: H-(PR)20HHHHHH-NH2 = target: T13, PR20: H-(PR)20HHHHHH-NH2 (C-terminal amide)
T13 peptide: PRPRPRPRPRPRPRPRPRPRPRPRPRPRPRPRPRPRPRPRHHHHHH
Outline: as §1

PR10: H-(PR)10HHHHHH-NH2 = target: T14, PR10: H-(PR)10HHHHHH-NH2 (C-terminal amide)
T14 peptide: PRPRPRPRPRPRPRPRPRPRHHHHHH
Outline: as §1

B1: NI-308.46E9 (antibody, V domains shown)
VH: QVQLQESGPGLVKPSETLSLTCTVSGASISGSTYYWGWIRQPPGKGLEYIGRIYYSGSTYYNPSLKSRATISVDTSKNQLSLTLSSVTAADTAVYYCVRPFYAGSGNSPFDYWGQGTLVTVSS
VL: CEIVLTQSPATVSVSPGERATLSCRASQSVSTNLAWYQQKPGQPPRLLIYGASTRATGIPARFSGSGSGAEFTLTISSLQSEDFVVYYCQQYNNWPPAFGGGTKVEIK
notes: Recombinant complete human IgG1, kappa
B1 showed an EC50 (GP10: H-(GP)10HHHHHH-NH2) of 63.3 nM.

B2: NI-308.6B11 (antibody, V domains shown)
VH: EVQLVQSGAEVKRPGASVKVSCKVSGYTLTELSMHWVRQAPGKGLEWMGGFDPEDGETVYAQKFQGRVTMTEDTSTDTAYMELSSLRSEDTALYHCATYGSSWHWNEGNEGSYYFDYWGQGTLVTVSS
VL: CDIQMTQSPSSLSASVGDRVTITCQASQDISIYLNWYQQKPGKAPKLLIYDASNLETGVPSRFSGSGSGTDFTFTISGLQPEDVARYYCQQYDDLPITFGQGTRLEIK
notes: as for B1
B2 showed an EC50 (GR6: H-(GR)6HHHHHH-NH2) of 0.33 nM, an EC50 (GR10: H-(GR)10HHHHHH-NH2) of 1.3 nM and an EC50 (GR3: H-(GR)3HHHHHH-NH2) of 14.3 nM. It also gave an EC50 (GR5: H-(GR)5HHHHHH-NH2) of 0.47 nM, an EC50 (GR4: H-(GR)4HHHHHH-NH2) of 13.2 nM and an EC50 (GR20: H-(GR)20HHHHHH-NH2) of 0.25 nM.

B3: NI-308.4M1 (antibody, V domains shown)
VH: EVQLVETGGGVVQPGGSLRLSCEASGFTIGTYAMHWVRQFPGKGLDWVAVISFDGTTEYYTDAVKGRFTISRDNAKNTLYLQMNYLRGDDTAIYFCARDFTSSGETGSWTQVPDLWGQGTLVTVSS
VL: CEIVMTQSPATLSLSPGERATLSCRASQSVTKYLAWYQQKPGQAPRLLIYDVSYRAAGTPARFSGSGSGTDFTLTISSLEPEDFAVYYCHQRSSWPPVTFGGGTKVEIK
notes: as for B1
B3 was tested, and the EC50 (PA5: H-(PA)5HHHHHH-NH2) was 26.9 nM, the EC50 (PA10: H-(PA)10HHHHHH-NH2) was 0.06 nM and the EC50 (PA6: H-(PA)6HHHHHH-NH2) was 4.3 nM. For the same binder, the EC50 (PA20: H-(PA)20HHHHHH-NH2) was 0.06 nM.

B4: NI-308.24E11 (antibody, V domains shown)
VH: QVQLQESGPGLVKPSETLSLTCTVSTTSLRSYFWSWIRQPPGKGLEWIGYVYYSGSTIYNPSLKNRVTISIDTSKNQFSLNLRSVTAADTAMYFCARGVPAETDARDFPPYYFDHWGQGTLVTVSS
VL: CDIQLTQSPSSLSASVGNRITFTCQASQDIRYYLNWYQQKPGKAPKLLIYDVSNLDTGVPPRFSGSGSGTNFTFTISSLQPEDIAVYYCQQYEGLPVTFGGGTKVEIK
notes: as for B1
B4 gave an EC50 (PR6: H-(PR)6HHHHHH-NH2) of over 200 nM, an EC50 (PR20: H-(PR)20HHHHHH-NH2) of 11.3 nM and an EC50 (PR10: H-(PR)10HHHHHH-NH2) of 31.7 nM.
